The source of these data is patent US20250304677A1 (VIB VZW, published 2025).

Assay [1] deals with T1, mouse folate receptor alpha (mFRα), recombinant protein (mouse, UniProt P35846 25-232).
T1 construct: Bought recombinant proteins (e.g. biotinylated, Acro Biosystems FO1-M82E9); also called mFOLR1; Ms FOLR1
Kind of assay: ELISA on coated mouse FOLR1, without folic acid. The procedure:
(§1) Data were normalized and technical replicates were plotted as mean±SD. Data were fitted by non-linear regression and the half-maximal effective concentration ^{∘}EC50) was calculated using GraphPad Prism 9 software. ^{∘}FIG. 1C and FIG. 1D) Binding affinity determination of anti-FOLR1 VHHs for native FOLR1. Mouse ^{∘}FIG. 1C) or human FOLR1 FIG. 1D) was overexpressed on HEK293T cells and binding of the anti-FOLR1 VHHs was assessed using flow cytometry. The mean fluorescence intensity ^{∘}MFI) of the phycoerythrin signal was plotted for each VHH concentration. Data were fitted by non-linear regression using GraphPad Prism 9 software. ^{∘}FIG. 1E) Determination of the competition of representative family members with folic acid ^{∘}FA) using ELISA. Mouse FOLR1 was coated on the plate and was pre-incubated with or without 100 μM FA before adding the VHHs. Data were fitted by non-linear regression using GraphPad Prism 9 software.
(§2) As interference with the endogenous transport of folates via FRα could have serious implications on brain homeostasis, competition between representative family members and FA for mouse FRα binding was assessed via ELISA ^{∘}FIG. 1E).

Assay [2] deals with T1, mouse folate receptor alpha (mFRα), …. Kind of assay: ELISA on recombinant FRα, cMyc tag detection. The procedure: as §1
(§3) In a first step, binding affinity and cross-reactivity of the purified VHHs to human and mouse FRα was assessed by ELISA, using detection of the cMyc tag ^{∘}FIG. 1A-B). […] 2HFO19 ^{∘}family 1) was the best binder of all tested VHHs to both mouse and human FRα with an EC₅₀ of 0.1 nM and 0.4 nM respectively ^{∘}FIG. 1A-B).

In assay [3] the target is T2, human folate receptor alpha (hFRα), recombinant protein (human, UniProt P15328 25-233).
T2 construct: Bought recombinant proteins (His-tagged, or biotinylated via Avi-tag, e.g. AcroBiosystems FO1-H82E2, F01-H52H1); also called hFOLR1; huFOLR1
Description: ELISA on recombinant FRα, cMyc tag detection. How it is done: as §1, §3

Assay [4] addresses T3, human FRβ with R135 replaced by glutamine (human, UniProt P14207 17-230).
T3 construct: The entry is the mutant itself; also called hFRβ R135Q
Description: flow cytometry on transiently transfected HEK293T cells, 200 nM VHH, mouse anti-His then anti-mouse-PE (B575-A). The text has this:
FIGS. 2A-2C illustrates the epitope mapping of anti-FOLR1 VHHs on human FOLR1/2 chimeras. ^{∘}FIG. 2A) To narrow down the epitope of the anti-folate receptor alpha ^{∘}FOLR1) VHHs, chimeric constructs were generated by exchanging a sequence block in human FOLR1 ^{∘}hFOLR1) by the corresponding human folate receptor beta ^{∘}hFOLR2) sequence, since the VHHs are able to bind both hFOLR1 and mouse FOLR1 ^{∘}mFOLR1; SEQ ID No.97), but not hFOLR2. These regions are indicated by the green arrows. Chimera 1 SEQ ID No. 67) and 7 ^{∘}Ch7; SEQ ID No. 73) also contain an additional residue change at a separate location. […] HEK293T cells were transfected with hFOLR1, hFOLR2, one of the hFOLR1/2 chimeric constructs ^{∘}FIG. 2B) or single residue mutants ^{∘}FIG. 2C). Binding of VHHs 2HFO19, 2HFO42, 3MFR60, and a mouse anti-FOLR1 monoclonal antibody ^{∘}mAb) was detected using a mouse anti-His tag antibody for the VHHs followed by an anti-mouse-phycoerythrin antibody. All VHHs were tested at a concentration of 200 nM and untransfected cells were used as a negative control. The colors used for the VHHs represent the different CDR3 families; blue: family 1, green: family 3, grey: family 10.
To further narrow down which specific residues might play a role, single residues of human FRα in the chimera 4 region that are not conserved between FRα and FRβ were mutated to their human FRβ counterpart. While all VHHs retained binding to human FRα E140Q SEQ ID No. 77), R147H ^{∘}SEQ ID No. 79), and Y150H ^{∘}SEQ ID No. 80) ^{∘}data not shown), binding was completely abolished when the Q141R mutation ^{∘}SEQ ID No. 78) was introduced ^{∘}FIG. 2C). To verify the role of this residue in the binding of the VHHs, the R135 residue in human FRβ was replaced by glutamine ^{∘}SEQ ID No. 81) and binding of the VHHs was analyzed. […] In addition to having ^{∘}partially) overlapping epitopes, the VHHs thus all require residue Q141 for binding.

Assay [5] has as its target T1, mouse folate receptor alpha (mFRα), …. Description: ELISA on coated mouse FOLR1 pre-incubated with 100 µM folic acid. How it is done:
as §1, §2

Assay [6] addresses T2, human folate receptor alpha (hFRα), …. Description: ELISA on recombinant human FOLR1, cMyc tag detection, normalised binding, non-linear fit. Put shortly: (§4)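 Purified VHHs were titrated on recombinant human or mouse FRα in ELISA, with binding detected through the cMyc tag. Data were normalized and replicates given as mean±SD. EC50 came from non-linear regression.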
Assay [7] deals with T1, mouse folate receptor alpha (mFRα), …. Description: ELISA on recombinant mouse FOLR1, cMyc tag detection, normalised binding, non-linear fit. Put shortly: as §4
Assay [8] shares this target. Description: ELISA on coated mouse FOLR1, without and with 100 µM folic acid (series not separable). The procedure:
as §1, §2

T3 sequence (P14207 17-230 R135Q limits assumed): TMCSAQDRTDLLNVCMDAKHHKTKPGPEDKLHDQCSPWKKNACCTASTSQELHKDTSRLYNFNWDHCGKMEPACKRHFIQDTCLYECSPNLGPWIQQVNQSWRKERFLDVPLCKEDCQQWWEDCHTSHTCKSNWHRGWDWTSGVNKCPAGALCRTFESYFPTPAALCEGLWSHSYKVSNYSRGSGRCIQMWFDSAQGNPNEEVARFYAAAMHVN
T2 sequence (P15328 25-233 limits assumed): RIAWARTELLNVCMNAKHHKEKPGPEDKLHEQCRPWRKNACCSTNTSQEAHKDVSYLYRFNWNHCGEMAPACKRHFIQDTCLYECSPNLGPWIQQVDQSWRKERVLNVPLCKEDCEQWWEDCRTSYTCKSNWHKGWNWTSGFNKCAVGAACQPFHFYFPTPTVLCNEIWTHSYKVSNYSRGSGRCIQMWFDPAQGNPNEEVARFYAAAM
T1 sequence (P35846 25-232 limits assumed): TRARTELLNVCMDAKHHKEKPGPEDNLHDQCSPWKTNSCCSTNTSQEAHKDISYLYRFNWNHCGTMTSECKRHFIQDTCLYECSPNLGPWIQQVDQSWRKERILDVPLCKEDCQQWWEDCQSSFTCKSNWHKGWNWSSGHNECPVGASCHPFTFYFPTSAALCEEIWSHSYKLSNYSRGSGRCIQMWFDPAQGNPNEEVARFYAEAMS

B1: VHH 2HFO19 (family 1) (VHH)
VHH: QVQLQESGGGLVQPGGSLRVSCAASGFPFSTVYMSWVRQAPGKGLEWVSGINNDGGVIDYADSVKGRFTISRDNAKNTLYLQLNSLKPEDTALYFCARGRSFVATLSSSLRGQGTQVTVSS
notes: also called Nb19
In the case of B1, the “EC50 (read off the curve)” value in assay [1] and in assay [5] was roughly 1 nM throughout. For the same molecule, the EC50 in assay [2] is 0.1 nM; in assay [3] it was 0.4 nM. In addition, the binding result in assay [4] is reported as “binds”.

B2: VHH 2HFO42 (family 3) (VHH)
VHH: QVQLQESGGGLVQAGGSLRLSCAASGSGFSGMIMGWYRQVPGKQRELVATVTSHGTTNYADSVKGRFTISRDNAKNTVLLQMNSLKPEDTAVYYCNAHFPGIYWGKGTQVTVSS
notes: also called 2HF042; Nb42
In the case of B2, the concentration giving a half-maximal response (EC50 (read off the curve)) in assay [1] was roughly 2 nM; in assay [5] it was 2 to 3 nM. For the same molecule, the results for the EC50 in assay [6] and in assay [7] were 10.4 nM and 0.2 nM, respectively. Besides, the binding result in assay [4] is “binds”.

B3: VHH 3MFR60 (family 10) (VHH)
VHH: QVQLQESGGGLVQAGGSLRVSCAASGIIFSMNGMGWFRQAPGKQRELVASITSGGSTKYADSVKGRFTISRDNAKNTVYLQMNSLKPEDTAVYYCNIQFGSRWSTYWGQGTQVTVSS
On to B3, for which the “EC50 (read off the curve)” value in assay [8] is roughly 3 nM. Moreover, the concentration giving a half-maximal response (EC50) in assay [6] was found to be 11.1 nM; in assay [7], 0.3 nM. For the same molecule, the binding result in assay [4] is “binds”.
